The results in this text go back to article PMC10397247.

One test concerns the target T1, O7-AA.
T1 chain: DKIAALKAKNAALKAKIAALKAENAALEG
The test can be described thus: two-hybrid library CCmax.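 Further: natural log of median RNA to DNA barcode read ratio; higher means stronger binding.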

The target in the next test is T2, O8-AA.
T2 chain: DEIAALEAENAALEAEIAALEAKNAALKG
The test can be described thus: two-hybrid library CCmax.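 Further: natural log of median RNA to DNA barcode read ratio; higher means stronger binding.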 The conditions noted are these: mean of both orientations.

The target of another test is T3, P10-AA.
T3 chain: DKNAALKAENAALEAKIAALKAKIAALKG
The test can be described thus: two-hybrid library CCmax.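 Further: natural log of median RNA to DNA barcode read ratio; higher means stronger binding.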 The conditions noted are these: mean of both orientations.

Another test deals with T4, P9-AA.
T4 chain: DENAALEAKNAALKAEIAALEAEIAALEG
In words: two-hybrid library CCmax.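 Further: natural log of median RNA to DNA barcode read ratio; higher means stronger binding.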 The note with it: mean of both orientations.

The target in another test is T5, P6SC1.
T5 chain: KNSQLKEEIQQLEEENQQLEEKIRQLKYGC
The test can be described thus: two-hybrid library CC1.

Another test deals with T6, P6SC2.
T6 chain: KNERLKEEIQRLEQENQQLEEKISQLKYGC
The test can be described thus: two-hybrid library CC1. The conditions noted are these: mean of both orientations.

Another test addresses T7, P6mS.
T7 chain: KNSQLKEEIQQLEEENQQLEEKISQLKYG
In words: two-hybrid library CC1. The note with it: mean of both orientations.

The target of another test is T8, P7.
T8 chain: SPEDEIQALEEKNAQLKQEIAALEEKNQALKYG
In words: two-hybrid library CC1. The note with it: mean of both orientations.

A further test concerns the target T9, P7mS.
T9 chain: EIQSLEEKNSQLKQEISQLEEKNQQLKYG
The test can be described thus: two-hybrid library CC1. The note with it: mean of both orientations.

For a further test, the target named is T10, P8.
T10 chain: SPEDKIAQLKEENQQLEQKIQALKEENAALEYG
In words: two-hybrid library CC1. The conditions noted are these: mean of both orientations.

The target in a further test is T11, P8mS.
T11 chain: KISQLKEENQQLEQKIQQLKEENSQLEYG
In words: two-hybrid library CC1. The note with it: mean of both orientations.

The next test deals with T12, P9.
T12 chain: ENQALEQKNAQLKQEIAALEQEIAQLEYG
In words: two-hybrid library CC1. The conditions noted are these: mean of both orientations.

In another test the target is T13, 4H3817-bA.
T13 chain: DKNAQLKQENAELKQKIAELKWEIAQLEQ
The test can be described thus: two-hybrid library CCNG1.

A further test concerns the target T14, 4H3858-bA.
T14 chain: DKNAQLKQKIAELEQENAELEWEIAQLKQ
The test can be described thus: two-hybrid library CCNG1.

Another test deals with T15, 4H3974-bA.
T15 chain: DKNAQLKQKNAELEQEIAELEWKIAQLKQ
In words: two-hybrid library CCNG1.

The target in a further test is T16, 4H570-bA.
T16 chain: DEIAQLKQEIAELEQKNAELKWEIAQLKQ
The test can be described thus: two-hybrid library CCNG1.

The target in another test is T17, 4H584-bA.
T17 chain: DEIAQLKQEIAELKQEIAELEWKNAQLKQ
The test can be described thus: two-hybrid library CCNG1.

The target of the next test is T18, 4H619-bA.
T18 chain: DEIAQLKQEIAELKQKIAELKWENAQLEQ
The test can be described thus: two-hybrid library CCNG1.

In a further test the target is T19, 4H850-bA.
T19 chain: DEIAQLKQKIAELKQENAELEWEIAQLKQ
The test can be described thus: two-hybrid library CCNG1.

The next test deals with T20, 4H906-bA.
T20 chain: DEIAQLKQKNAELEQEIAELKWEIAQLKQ
In words: two-hybrid library CCNG1.

In a further test the target is T21, 4H3628-bA.
T21 chain: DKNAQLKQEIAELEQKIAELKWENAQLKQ
In words: two-hybrid library CCNG1.

The target in the next test is T22, 4H3926-bA.
T22 chain: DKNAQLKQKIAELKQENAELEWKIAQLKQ
The test can be described thus: two-hybrid library CCNG1.

A further test has as its target T23, 4H591-bA.
T23 chain: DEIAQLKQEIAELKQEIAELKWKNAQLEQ
The test can be described thus: two-hybrid library CCNG1.

A further test addresses T24, 4H626-bA.
T24 chain: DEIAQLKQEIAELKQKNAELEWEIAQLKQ
In words: two-hybrid library CCNG1.

Another test has as its target T25, 4H278-AA.
T25 chain: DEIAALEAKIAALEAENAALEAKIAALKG
In words: two-hybrid library CCmax.

The target of another test is T26, 4H2873-AA.
T26 chain: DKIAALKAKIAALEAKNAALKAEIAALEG
The test can be described thus: two-hybrid library CCmax. The note with it: mean of both orientations.

Another test concerns the target T27, 4H2985-AA.
T27 chain: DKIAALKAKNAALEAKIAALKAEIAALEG
The test can be described thus: two-hybrid library CCmax. The note with it: mean of both orientations.

In the next test the target is T28, 4H3134-AA.
T28 chain: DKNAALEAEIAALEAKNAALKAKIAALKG
In words: two-hybrid library CCmax. The conditions noted are these: mean of both orientations.

The target in another test is T29, 4H3409-AA.
T29 chain: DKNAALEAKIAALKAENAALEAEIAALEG
In words: two-hybrid library CCmax. The conditions noted are these: mean of both orientations.

The next test has as its target T30, 4H3625-AA.
T30 chain: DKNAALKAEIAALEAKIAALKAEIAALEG
The test can be described thus: two-hybrid library CCmax. The conditions noted are these: mean of both orientations.

In the next test the target is T31, 4H390-AA.
T31 chain: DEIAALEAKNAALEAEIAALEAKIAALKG
In words: two-hybrid library CCmax. The note with it: mean of both orientations.

In the next test the target is T32, 4H3940-AA.
T32 chain: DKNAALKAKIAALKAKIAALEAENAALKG
The test can be described thus: two-hybrid library CCmax. The conditions noted are these: mean of both orientations.

In a further test the target is T33, 4H510-AA.
T33 chain: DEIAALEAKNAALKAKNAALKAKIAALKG
The test can be described thus: two-hybrid library CCmax. The conditions noted are these: mean of both orientations.

The target in the next test is T34, 4H775-AA.
T34 chain: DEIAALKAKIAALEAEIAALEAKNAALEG
The test can be described thus: two-hybrid library CCmax.

The next test deals with T35, 4H816-AA.
T35 chain: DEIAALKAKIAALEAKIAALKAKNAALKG
In words: two-hybrid library CCmax. The conditions noted are these: mean of both orientations.

The next test concerns the target T36, 4H87-AA.
T36 chain: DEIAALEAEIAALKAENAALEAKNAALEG
In words: two-hybrid library CCmax. The note with it: mean of both orientations.

The next test addresses T37, 4H3613-bA.
T37 chain: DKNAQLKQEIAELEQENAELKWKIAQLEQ
In words: two-hybrid library CCNG1.

For DKIAALKAKNAALKAKIAALKAENAALEG [O7-AA], the interaction score with O7-AA is -1.65; with O8-AA, 2.12; with P10-AA, -1.18; with P9-AA, -1.37.
For the molecule KNSQLKEEIQQLEEENQQLEEKIRQLKYGC [P6SC1], the interaction score is -2.56 in the test with P6SC1; -2.43 with P6SC2; -2.87 in the test with P6mS; -0.456 with P7; -2.22 with P7mS; -2.12 with P8. The interaction score with P8mS is -2.55; in the test with P9, -1.54.
For the molecule DKNAQLKQENAELKQKIAELKWEIAQLEQ [4H3817-bA], the interaction score in the test with 4H3817-bA was -0.506; in the test with 4H3858-bA, -1.18; with 4H3974-bA it was 1.27; in the test with 4H570-bA, -1.2; with 4H584-bA, -1.24; with 4H619-bA, -1.25. In addition, the interaction score was -0.849 in the test with 4H850-bA and -0.916 with 4H906-bA.
With DKNAQLKQEIAELEQKIAELKWENAQLKQ [4H3628-bA], the interaction score with 4H3628-bA was 0.549; in the test with 4H3817-bA, 0.612; in the test with 4H3858-bA it was -0.214; with 4H3926-bA it was 0.307; with 4H3974-bA, 1.31; in the test with 4H570-bA, -0.226. For the same molecule, the interaction score with 4H591-bA was -0.511; with 4H626-bA it was -1.6; with 4H850-bA, 0.124; with 4H906-bA, -0.866.
As to DEIAALEAKIAALEAENAALEAKIAALKG [4H278-AA], the interaction score in the test with 4H278-AA worked out at 1.38; with 4H2873-AA, 1.66; with 4H2985-AA, 1.94; with 4H3134-AA it was 1.9; with 4H3409-AA it was 0.702; in the test with 4H3625-AA it was 1.32. Moreover, the interaction score is 1.6 in the test with 4H390-AA; 0.936 with 4H3940-AA; 1.09 in the test with 4H510-AA; -1.16 with 4H775-AA; 0.427 with 4H816-AA; -1.44 with 4H87-AA.
In the case of DKNAQLKQEIAELEQENAELKWKIAQLEQ [4H3613-bA], the interaction score with 4H3613-bA is -0.128; with 4H3628-bA it was -0.292; in the test with 4H3817-bA, -0.898; with 4H3858-bA, -0.117; in the test with 4H3926-bA it was 2.15; with 4H3974-bA, -0.83. Besides, the interaction score was -0.148 with 4H570-bA; -0.523 with 4H591-bA; -0.846 in the test with 4H626-bA; 0.586 in the test with 4H850-bA; -0.971 in the test with 4H906-bA.
